Among the data in US20260168983A1, “YaxAB NANOPORE, NANOPORE SYSTEM COMPRISING SAME AND APPLICATIONS THEREOF” (KOREA RESEARCH INSTITUTE OF BIOSCIENCE AND BIOTECHNOLOGY, priority 2022, published 2026) are signal frequency of the Bcl-xL-peptide complex values, retold here.

The assay addresses Bcl-xL protein, Q07817. The assay can be described thus: YaxAB nanopore; Bcl-xL with a mix of four competing peptides at 1:15.

Sequence of Bcl-xL protein, Q07817 (Q07817 1-209): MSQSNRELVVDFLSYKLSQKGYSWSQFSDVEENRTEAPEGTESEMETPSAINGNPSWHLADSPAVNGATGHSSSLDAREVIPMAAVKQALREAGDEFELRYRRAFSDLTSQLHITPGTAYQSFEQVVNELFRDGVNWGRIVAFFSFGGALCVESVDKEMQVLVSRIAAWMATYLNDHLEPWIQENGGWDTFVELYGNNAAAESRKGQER

B1: Bak_BH3_I85A, Q16611 72-87 (peptide)
peptide: GQVGRQLAIIGDDANR
modifications: not checked
For the molecule B1, the signal frequency of the Bcl-xL-peptide complex came to 7%.

B2: Bak_BH3_L78A, Q16611 72-87 (peptide)
peptide: GQVGRQAAIIGDDINR
modifications: not checked
With B2, the signal frequency of the Bcl-xL-peptide complex came out at 3%.
